Substitutions are numbered along the chain they refer to.
Columns and labels:
[1] = target: T1, human IL-17RC, x1 splice variant, on transfected cells (human, UniProt Q8NAC3 21-791); assay: FACS, biotinylated cytokine on transiently transfected 293F cells
T1 construct: Expressed on BHK, 293F or NIH3T3 cells; also called hIL-17RC; hIL-17RC (x1)
T1 sequence: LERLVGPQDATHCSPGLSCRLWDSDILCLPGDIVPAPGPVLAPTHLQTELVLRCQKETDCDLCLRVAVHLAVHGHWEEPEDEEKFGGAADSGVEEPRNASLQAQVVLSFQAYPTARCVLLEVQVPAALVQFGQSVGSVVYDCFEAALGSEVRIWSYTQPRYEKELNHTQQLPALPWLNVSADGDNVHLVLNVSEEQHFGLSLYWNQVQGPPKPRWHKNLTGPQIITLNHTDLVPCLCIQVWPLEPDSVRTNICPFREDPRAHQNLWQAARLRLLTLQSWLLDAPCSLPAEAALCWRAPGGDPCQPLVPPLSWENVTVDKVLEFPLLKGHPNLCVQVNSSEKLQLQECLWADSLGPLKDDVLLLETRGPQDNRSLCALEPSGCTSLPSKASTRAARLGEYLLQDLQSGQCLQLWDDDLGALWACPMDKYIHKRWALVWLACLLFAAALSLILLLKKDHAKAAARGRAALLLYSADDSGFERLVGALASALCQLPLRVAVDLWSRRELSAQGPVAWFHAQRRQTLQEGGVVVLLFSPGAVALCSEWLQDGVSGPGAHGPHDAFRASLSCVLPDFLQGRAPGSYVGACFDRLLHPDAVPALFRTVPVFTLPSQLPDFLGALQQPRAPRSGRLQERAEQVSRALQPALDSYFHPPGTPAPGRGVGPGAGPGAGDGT
Description: (§1) However, the other splice variants tested either included or excluded hIL-17RC exon 12. These variants were designated hIL-17RCx1 (identical in exon composition to mouse x1 above), hIL-17RCx4 (identical in exon composition to mouse x4 above), hIL-17RCx2, and hIL-17RCx7.

[2] = target: T2, human IL-17RC, x4 splice variant, on transfected cells (human, UniProt Q8NAC3 21-791); assay: as above
T2 construct: Expressed on 293F, BHK or NIH3T3 cells; also called hIL-17RCx4; hIL-17RCX4
T2 sequence: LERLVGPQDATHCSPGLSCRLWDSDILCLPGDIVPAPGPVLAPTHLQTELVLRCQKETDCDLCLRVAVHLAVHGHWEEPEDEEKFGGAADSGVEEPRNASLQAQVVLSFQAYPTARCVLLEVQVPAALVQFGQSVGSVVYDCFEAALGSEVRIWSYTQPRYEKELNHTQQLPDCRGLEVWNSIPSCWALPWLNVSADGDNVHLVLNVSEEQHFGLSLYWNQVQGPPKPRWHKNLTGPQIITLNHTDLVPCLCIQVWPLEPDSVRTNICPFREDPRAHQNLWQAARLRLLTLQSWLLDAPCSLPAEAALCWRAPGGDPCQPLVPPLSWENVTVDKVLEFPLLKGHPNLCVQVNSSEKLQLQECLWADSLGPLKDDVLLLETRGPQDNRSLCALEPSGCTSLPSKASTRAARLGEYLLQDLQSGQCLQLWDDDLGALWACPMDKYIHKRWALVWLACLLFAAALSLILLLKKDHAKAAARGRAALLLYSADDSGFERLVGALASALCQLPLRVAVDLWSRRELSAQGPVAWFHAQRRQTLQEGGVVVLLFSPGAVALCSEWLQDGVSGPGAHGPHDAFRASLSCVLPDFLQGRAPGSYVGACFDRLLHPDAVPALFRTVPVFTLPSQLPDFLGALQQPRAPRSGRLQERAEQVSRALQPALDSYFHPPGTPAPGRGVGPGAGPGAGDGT
Description: as §1

[3] = target: T1, human IL-17RC, x1 splice variant, on …; assay: competition, cold competitor vs 125I-IL-17A on BHK hIL-17RC cells
Protocol: Cold competitors were added in 100 fold molar excess. […] Wells were incubated on ice for 1-hour followed by two washes with PBS (Invitrogen 20012-027) and one wash with a high salt solution (1.5M NaCL, 50 mM HEPES pH 7.4). Wells were extracted with 500 ul of 0.8M NaOH for 30 min. at room temperature and counts per minute were measured in a gamma counter (Packard Cobra II A5005).

[4] = target: T3, human IL-17 receptor (IL-17RA) on transfected cells (human, UniProt Q96F46 33-320); assay: FACS, biotinylated cytokine on stably transfected BHK cells
T3 construct: it may not be the full-length receptor; also called hIL-17RA
T3 sequence: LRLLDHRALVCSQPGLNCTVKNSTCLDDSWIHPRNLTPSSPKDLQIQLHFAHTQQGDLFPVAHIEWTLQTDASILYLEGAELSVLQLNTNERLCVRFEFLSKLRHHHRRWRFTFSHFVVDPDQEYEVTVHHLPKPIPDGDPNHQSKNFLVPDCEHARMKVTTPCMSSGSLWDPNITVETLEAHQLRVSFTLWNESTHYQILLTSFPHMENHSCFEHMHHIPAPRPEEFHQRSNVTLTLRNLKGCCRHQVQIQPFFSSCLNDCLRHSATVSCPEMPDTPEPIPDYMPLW

human IL-17A = target: T4, human IL-17A (human, UniProt Q16552 24-155); assay: cell-based competition binding, FACS
T4 construct: also called hIL-17A; hIL17A
T4 sequence: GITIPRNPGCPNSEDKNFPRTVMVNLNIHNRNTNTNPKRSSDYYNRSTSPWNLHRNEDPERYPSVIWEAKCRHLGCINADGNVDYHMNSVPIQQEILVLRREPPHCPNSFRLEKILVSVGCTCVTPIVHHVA
Protocol: (§2) The biotinylation of the ligand allows for FACS detection using a secondary Streptavidin conjugated fluorophore. A reduction in cell bound ligand over a titration of the soluble receptor is recorded as a reduction in the mean fluorescence of the cells. Biotinylated ligands are individually pre-mixed at 1 ug/ml with titrating amounts of soluble receptor in staining media (HBSS+1% BSA+0.1% NaAzide+10 mM HEPES) in 100 ul volumes and incubated at RT for 15 minutes. A BHK cell line stably transfected with full length IL17RCx4 is prepared for ligand staining by resuspension with Versene (Invitrogen cat. 15040-066), equilibrating to 2×10e5 cells/100 ul, pelleting, and resuspension in the ligand/soluble receptor pre-mix. Stained cells are incubated at 4° for 30 minutes, washed 1× in staining media, and stained with Streptavidin-PE (BD Pharmingen cat. 554061) at a 1:100 ratio. Cells are incubated at 4° in the dark for 30 minutes, washed 2× in staining media, and re-suspended in a 1:1 ratio of staining media and Cytofix (BD Bioscience 554655). The BD LSRII Flow Cytometer or similar instrument is used for data collection and analysis. FIG. 5 depicts a standard graph. The graph was generated using the Prizm software program. The Y values represent the MFI normalized to maximum and minimum (100% and 0%) based on ligand only and no ligand/no soluble receptor control wells, and thus the percent binding of the ligand to the cells. The software calculates the IC50 for each curve.

human IL-17F = target: T5, human IL-17F (human, UniProt Q96PD4 31-163); assay: cell-based competition binding, FACS
T5 construct: also called hIL-17F; hIL17F
T5 sequence: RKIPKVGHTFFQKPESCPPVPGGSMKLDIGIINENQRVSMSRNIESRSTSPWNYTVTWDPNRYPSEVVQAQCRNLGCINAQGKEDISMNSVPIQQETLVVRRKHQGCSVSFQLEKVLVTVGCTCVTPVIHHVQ
Protocol: as §2

B1: murine IL-17F (ligand)
chain: RKNPKAGVPALQKAGNCPPLEDNTVRVDIRIFNQNQGISVPREFQNRSSSPWDYNITRDPHRFPSEIAEAQCRHSGCINAQGQEDSTMNSVAIQQEILVLRREPQGCSNSFRLEKMLLKVGCTCVKPIVHQAA
notes: also called mIL-17F; mIL17F
- binding result [1]: no binding
- binding result [2]: binds

B2: human IL-17C (ligand, UniProt Q9P0M4 19-197, looked up)
chain: HHDPSLRGHPHSHGTPHCYSAEELPLGQAPPHLLARGAKWGQALPVALVSSLEAASHRGRHERPSATTQCPVLRPEEVLEADTHQRSISPWRYRVDTDEDRYPQKLAFAECLCRGCIDARTGRETAALNSVRLLQSLLVLRRRPCSRDGSGLPTPGAFAFHTEFIHVPVGCTCVLPRSV
notes: also called hIL-17C
- binding result [3]: no binding (tested: 100 fold molar excess)

B3: human IL-17D (ligand, UniProt Q8TAD2 18-202, looked up)
chain: APRAGRRPARPRGCADRPEELLEQLYGRLAAGVLSAFHHTLQLGPREQARNASCPAGGRPADRRFRPPTNLRSVSPWAYRISYDPARYPRYLPEAYCLCRGCLTGLFGEEDVRFRSAPVYMPTVVLRRTPACAGGRSVYTEAYVTIPVGCTCVPEPEKDADSINSSIDKQGAKLLLGPNDAPAGP
notes: also called hIL-17D
- binding result [3]: no binding (tested: 100 fold molar excess)
- binding result [4]: no binding

B4: Variant 1390 (Fc fusion)
chain: LERLVGPQDATHCSPGLSCRLWDSDILCLPGDIVPAPGPVLAPTHLQTELVLRCQKETDCDLCLRVAVHLAVHGHWEEPEDEEKFGGAADSGVEEPRNASLQAQVVLSFQAYPTARCVLLEVQVPAALVQFGQSVGSVVYDCFEAALGSEVRIWSYTQPRYEKELNHTQQLPALPWLNVSADGDNVHLVLNVSEEQHFGLSLYWNQVQGPPKPRWHKNLTGPQIITLNHTDLVPCLCIQVWPLEPDSVRTNICPFREDPRAHQNLWQAARLRLLTLQSWLLDAPCSLPAEAALCWRAPGGDPCQPLVPPLSWENVTVDKVLEFPLLKGHPNLCVQVNSSEKLQLQECLWADSLGPLKDDVLLLETRGPQDNRSLCALEPSGCTSLPSKASTRAARLGEYLLQDLQSGQCLQLWDDDLGALWACPMDKYIHKEPKSSDKTHTCPPCPAPEAEGAPSVFLFPPKPKDTLMISRTPEVTCVVVDVSHEDPEVKFNWYVDGVEVHNAKTKPREEQYNSTYRVVSVLTVLHQDWLNGKEYKCKVSNKALPSSIEKTISKAKGQPREPQVYTLPPSRDELTKNQVSLTCLVKGFYPSDIAVEWESNGQPENNYKTTPPVLDSDGSFFLYSKLTVDKSRWQQGNVFSCSVMHEALHNHYTQKSLSLSPGK
notes: The entry may include the signal peptide; also called IL17RC 1390
- IC50 (human IL-17A): 12 µg/mL
- IC50 (human IL-17F): 9 µg/mL

B5: Variant 1459 (Fc fusion)
chain: B4 chain with L1A
notes: The entry may include the signal peptide; also called IL17RC 1459
- IC50 (human IL-17A): 126 µg/mL
- IC50 (human IL-17F): 103 µg/mL

B6: human IL-17E (ligand, UniProt Q9H293 33-177, looked up)
chain: YSHWPSCCPSKGQDTSEELLRWSTVPVPPLEPARPNRHPESCRASEDGPLNSRAISPWRYELDRDLNRLPQDLYHARCLCPHCVSLQTGSHMDPRGNSELLYHNQTVFYRRPCHGEKGTHKGYCLERRLYRVSLACVCVRPRVMG
notes: also called hIL-17E
- binding result [3]: no binding (tested: 100 fold molar excess)
- binding result [4]: no binding
